Measurements: article PMC9482650, “Quantitative fragmentomics allow affinity mapping of interactomes” (Nature Communications, 2022)

Experiments:
Assay in all cases: holdup assay
Parameters in all cases: key: below the threshold = too weak to quantify, mostly under pKd 3.1 to 4
DFNB31_3, Q9P202 = biological target: T1, DFNB31_3, Q9P202
T1 sequence (Q9P202 811-907, limits assumed, looked up): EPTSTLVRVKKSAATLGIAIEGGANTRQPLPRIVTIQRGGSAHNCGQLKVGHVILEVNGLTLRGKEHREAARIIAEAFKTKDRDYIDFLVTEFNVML

SNX27, Q96L92 = biological target: SNX27, Q96L92
SNTG1, Q9NSN8 = biological target: T2, SNTG1, Q9NSN8
T2 sequence (Q9NSN8 52-150, limits assumed, looked up): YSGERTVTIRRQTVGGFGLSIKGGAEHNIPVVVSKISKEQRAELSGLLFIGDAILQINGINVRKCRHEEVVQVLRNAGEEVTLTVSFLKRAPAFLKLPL

TJP3_3, O95049 = biological target: T3, TJP3_3, O95049
T3 sequence (O95049 375-456, limits assumed, looked up): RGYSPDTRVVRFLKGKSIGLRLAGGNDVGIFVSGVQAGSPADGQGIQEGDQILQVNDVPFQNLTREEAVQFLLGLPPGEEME

MAGI2_6, Q86UL8 = biological target: MAGI2_6, Q86UL8
Sequence of MAGI2_6, Q86UL8 (Q86UL8 1141-1229): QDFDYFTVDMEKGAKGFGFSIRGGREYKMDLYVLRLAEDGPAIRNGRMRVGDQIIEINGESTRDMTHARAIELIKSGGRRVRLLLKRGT

Inadl_10, Q8NI35 = biological target: Inadl_10, Q8NI35
Sequence of Inadl_10, Q8NI35 (Q8NI35 1673-1763): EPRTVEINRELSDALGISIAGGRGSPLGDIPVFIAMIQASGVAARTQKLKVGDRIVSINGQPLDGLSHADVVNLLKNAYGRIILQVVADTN

NHERF4_2, Q86UT5 = biological target: NHERF4_2, Q86UT5
Sequence of NHERF4_2, Q86UT5 (Q86UT5 220-308): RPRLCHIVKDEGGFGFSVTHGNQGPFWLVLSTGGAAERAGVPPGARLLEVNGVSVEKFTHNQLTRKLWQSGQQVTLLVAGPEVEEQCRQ

PTPN3, P26045 = biological target: PTPN3, P26045
Sequence of PTPN3, P26045 (P26045 505-587): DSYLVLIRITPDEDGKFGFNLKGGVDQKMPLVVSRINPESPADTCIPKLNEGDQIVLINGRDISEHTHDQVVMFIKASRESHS

CARD11, Q9BXL7 = biological target: T4, CARD11, Q9BXL7
T4 sequence (Q9BXL7 662-765, limits assumed, looked up): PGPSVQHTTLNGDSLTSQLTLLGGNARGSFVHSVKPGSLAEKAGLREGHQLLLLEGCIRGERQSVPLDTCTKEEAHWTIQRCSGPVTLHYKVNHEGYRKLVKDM

LNX2_2, Q8N448 = biological target: T5, LNX2_2, Q8N448
T5 sequence (Q8N448 334-432, limits assumed, looked up): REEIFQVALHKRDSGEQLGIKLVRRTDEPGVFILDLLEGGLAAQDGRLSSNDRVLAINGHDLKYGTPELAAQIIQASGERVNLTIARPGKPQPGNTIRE

SNTB1, Q13884 = biological target: T6, SNTB1, Q13884
T6 sequence (Q13884 107-205, limits assumed, looked up): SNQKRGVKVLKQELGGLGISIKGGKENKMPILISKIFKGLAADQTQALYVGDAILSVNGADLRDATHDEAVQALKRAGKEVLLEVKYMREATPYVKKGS

IL16_3, Q14005 = biological target: IL16_3, Q14005
Sequence of IL16_3, Q14005 (Q14005 1107-1207): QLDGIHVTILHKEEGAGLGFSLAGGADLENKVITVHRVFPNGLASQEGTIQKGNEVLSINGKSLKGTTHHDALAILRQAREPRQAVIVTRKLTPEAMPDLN

NOS1, P29475 = biological target: NOS1, P29475
Sequence of NOS1, P29475 (P29475 9-101): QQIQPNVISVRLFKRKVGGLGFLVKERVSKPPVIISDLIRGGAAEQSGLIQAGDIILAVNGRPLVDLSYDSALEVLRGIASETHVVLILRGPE

APBA2_2, Q99767 = biological target: T7, APBA2_2, Q99767
T7 sequence (Q99767 654-744, limits assumed, looked up): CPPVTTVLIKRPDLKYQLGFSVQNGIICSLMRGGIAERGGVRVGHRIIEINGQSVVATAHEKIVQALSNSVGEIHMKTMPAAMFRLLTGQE

FRMPD4, Q14CM0 = biological target: FRMPD4, Q14CM0
Sequence of FRMPD4, Q14CM0 (Q14CM0 67-160): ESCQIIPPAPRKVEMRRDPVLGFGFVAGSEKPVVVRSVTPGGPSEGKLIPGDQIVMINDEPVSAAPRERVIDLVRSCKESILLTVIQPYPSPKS

ARHGAP21, Q5T5U3 = biological target: T8, ARHGAP21, Q5T5U3
T8 sequence (Q5T5U3 45-169, limits assumed, looked up): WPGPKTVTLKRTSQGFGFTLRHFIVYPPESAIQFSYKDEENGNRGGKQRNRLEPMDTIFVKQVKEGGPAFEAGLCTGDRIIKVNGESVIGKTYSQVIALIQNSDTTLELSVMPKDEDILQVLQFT

Inadl_4, Q8NI35 = biological target: Inadl_4, Q8NI35
Sequence of Inadl_4, Q8NI35 (Q8NI35 547-651): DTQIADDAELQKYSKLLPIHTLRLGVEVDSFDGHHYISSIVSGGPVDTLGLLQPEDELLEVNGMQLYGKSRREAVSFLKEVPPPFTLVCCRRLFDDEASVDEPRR

HTRA3, P83110 = biological target: T9, HTRA3, P83110
T9 sequence (P83110 354-453, limits assumed, looked up): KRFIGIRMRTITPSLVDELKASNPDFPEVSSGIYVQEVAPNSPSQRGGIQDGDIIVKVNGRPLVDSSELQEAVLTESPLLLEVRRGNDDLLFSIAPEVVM

RAPGEF6, Q8TEU7 = biological target: T10, RAPGEF6, Q8TEU7
T10 sequence (Q8TEU7 525-625, limits assumed, looked up): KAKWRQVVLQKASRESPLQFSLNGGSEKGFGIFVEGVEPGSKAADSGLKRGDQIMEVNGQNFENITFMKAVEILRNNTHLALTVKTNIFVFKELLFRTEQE

MPDZ_12, O75970 = biological target: T11, MPDZ_12, O75970
T11 sequence (O75970 1857-1958, limits assumed, looked up): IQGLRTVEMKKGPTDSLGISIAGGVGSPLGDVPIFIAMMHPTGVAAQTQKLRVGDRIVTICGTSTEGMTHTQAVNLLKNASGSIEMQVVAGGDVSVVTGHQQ

DFNB31_2, Q9P202 = biological target: T12, DFNB31_2, Q9P202
T12 sequence (Q9P202 274-371, limits assumed, looked up): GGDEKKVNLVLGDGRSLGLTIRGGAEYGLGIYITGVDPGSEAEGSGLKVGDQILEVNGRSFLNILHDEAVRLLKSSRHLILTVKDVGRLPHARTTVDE

DFNB31_1, Q9P202 = biological target: T13, DFNB31_1, Q9P202
T13 sequence (Q9P202 135-233, limits assumed, looked up): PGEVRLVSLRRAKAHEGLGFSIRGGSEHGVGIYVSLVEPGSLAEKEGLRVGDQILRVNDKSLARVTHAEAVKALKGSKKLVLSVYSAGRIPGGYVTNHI

PICK1, Q9NRD5 = biological target: PICK1, Q9NRD5
Sequence of PICK1, Q9NRD5 (Q9NRD5 17-115): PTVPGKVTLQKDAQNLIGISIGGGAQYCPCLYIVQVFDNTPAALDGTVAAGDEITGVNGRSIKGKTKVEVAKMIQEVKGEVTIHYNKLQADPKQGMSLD

GIPC2, Q8TF65 = biological target: GIPC2, Q8TF65
Sequence of GIPC2, Q8TF65 (Q8TF65 112-203): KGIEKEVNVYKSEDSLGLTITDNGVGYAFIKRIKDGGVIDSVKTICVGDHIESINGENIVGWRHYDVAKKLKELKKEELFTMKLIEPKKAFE

SCRIB_1, Q14160 = biological target: SCRIB_1, Q14160
Sequence of SCRIB_1, Q14160 (Q14160 718-814): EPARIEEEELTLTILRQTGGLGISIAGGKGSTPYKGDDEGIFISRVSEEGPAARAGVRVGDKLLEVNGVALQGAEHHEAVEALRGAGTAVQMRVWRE

[1] = plain residues with an end cap or a label only (N-terminal biotin on a linker: ado-ado)
[2] = modified: phospho on T at position -2 from the C-terminal residue

## YNNCLEILRV [DCAF7, P61962]
DFNB31_3, Q9P202; [1]
  pKd: below the threshold
SNX27, Q96L92; [1]
  pKd: below the threshold
SNTG1, Q9NSN8; [1]
  pKd: below the threshold
TJP3_3, O95049; [1]
  pKd: below the threshold
MAGI2_6, Q86UL8; [1]
  pKd: below the threshold
Inadl_10, Q8NI35; [1]
  pKd: below the threshold
NHERF4_2, Q86UT5; [1]
  pKd: below the threshold
PTPN3, P26045; [1]
  pKd: below the threshold
CARD11, Q9BXL7; [1]
  pKd: below the threshold
LNX2_2, Q8N448; [1]
  pKd: 4.91
SNTB1, Q13884; [1]
  pKd: below the threshold
IL16_3, Q14005; [1]
  pKd: below the threshold
NOS1, P29475; [1]
  pKd: below the threshold
APBA2_2, Q99767; [1]
  pKd: below the threshold
FRMPD4, Q14CM0; [1]
  pKd: below the threshold
ARHGAP21, Q5T5U3; [1]
  pKd: below the threshold
Inadl_4, Q8NI35; [1]
  pKd: below the threshold
HTRA3, P83110; [1]
  pKd: below the threshold
RAPGEF6, Q8TEU7; [1]
  pKd: below the threshold
MPDZ_12, O75970; [1]
  pKd: below the threshold
DFNB31_2, Q9P202; [1]
  pKd: below the threshold
DFNB31_1, Q9P202; [1]
  pKd: below the threshold
PICK1, Q9NRD5; [1]
  pKd: below the threshold
GIPC2, Q8TF65; [1]
  pKd: below the threshold
SCRIB_1, Q14160; [1]
  pKd: below the threshold

## RRLPGKETMA [GRIK2, Q13002]
DFNB31_3, Q9P202; [1]
  pKd: below the threshold
SNX27, Q96L92; [1]
  pKd: below the threshold
SNTG1, Q9NSN8; [1]
  pKd: below the threshold
TJP3_3, O95049; [1]
  pKd: below the threshold
MAGI2_6, Q86UL8; [1]
  pKd: below the threshold
Inadl_10, Q8NI35; [1]
  pKd: below the threshold
NHERF4_2, Q86UT5; [1]
  pKd: below the threshold
PTPN3, P26045; [1]
  pKd: below the threshold
CARD11, Q9BXL7; [1]
  pKd: below the threshold
LNX2_2, Q8N448; [1]
  pKd: below the threshold
SNTB1, Q13884; [1]
  pKd: below the threshold
IL16_3, Q14005; [1]
  pKd: below the threshold
NOS1, P29475; [1]
  pKd: below the threshold
APBA2_2, Q99767; [1]
  pKd: below the threshold
FRMPD4, Q14CM0; [1]
  pKd: below the threshold
ARHGAP21, Q5T5U3; [1]
  pKd: below the threshold
Inadl_4, Q8NI35; [1]
  pKd: below the threshold
HTRA3, P83110; [1]
  pKd: below the threshold
RAPGEF6, Q8TEU7; [1]
  pKd: 3.53
MPDZ_12, O75970; [1]
  pKd: below the threshold
DFNB31_2, Q9P202; [1]
  pKd: below the threshold
DFNB31_1, Q9P202; [1]
  pKd: below the threshold
PICK1, Q9NRD5; [1]
  pKd: below the threshold
GIPC2, Q8TF65; [1]
  pKd: below the threshold
SCRIB_1, Q14160; [1]
  pKd: below the threshold

## SKPTRRETEV [HPV35-E6_-2P, P27228]
DFNB31_3, Q9P202; [2]
  pKd: 3.95
SNX27, Q96L92; [2]
  pKd: 3.59
SNTG1, Q9NSN8; [2]
  pKd: below the threshold
TJP3_3, O95049; [2]
  pKd: below the threshold
MAGI2_6, Q86UL8; [2]
  pKd: below the threshold
Inadl_10, Q8NI35; [2]
  pKd: below the threshold
NHERF4_2, Q86UT5; [2]
  pKd: below the threshold
PTPN3, P26045; [2]
  pKd: 3.98
CARD11, Q9BXL7; [2]
  pKd: below the threshold
LNX2_2, Q8N448; [2]
  pKd: below the threshold
SNTB1, Q13884; [2]
  pKd: below the threshold
IL16_3, Q14005; [2]
  pKd: below the threshold
NOS1, P29475; [2]
  pKd: below the threshold
APBA2_2, Q99767; [2]
  pKd: below the threshold
FRMPD4, Q14CM0; [2]
  pKd: below the threshold
ARHGAP21, Q5T5U3; [2]
  pKd: 4.08
Inadl_4, Q8NI35; [2]
  pKd: below the threshold
HTRA3, P83110; [2]
  pKd: below the threshold
RAPGEF6, Q8TEU7; [2]
  pKd: below the threshold
MPDZ_12, O75970; [2]
  pKd: below the threshold
DFNB31_2, Q9P202; [2]
  pKd: below the threshold
DFNB31_1, Q9P202; [2]
  pKd: below the threshold
PICK1, Q9NRD5; [2]
  pKd: below the threshold
GIPC2, Q8TF65; [2]
  pKd: below the threshold
SCRIB_1, Q14160; [2]
  pKd: below the threshold

## RRRESYSTTV [EVI5, O60447]
DFNB31_3, Q9P202; [1]
  pKd: below the threshold
SNX27, Q96L92; [1]
  pKd: 4.79
SNTG1, Q9NSN8; [1]
  pKd: 3.63
TJP3_3, O95049; [1]
  pKd: below the threshold
MAGI2_6, Q86UL8; [1]
  pKd: 3.77
Inadl_10, Q8NI35; [1]
  pKd: 3.8
NHERF4_2, Q86UT5; [1]
  pKd: below the threshold
PTPN3, P26045; [1]
  pKd: 4.31
CARD11, Q9BXL7; [1]
  pKd: below the threshold
LNX2_2, Q8N448; [1]
  pKd: 5.2
SNTB1, Q13884; [1]
  pKd: 4.65
IL16_3, Q14005; [1]
  pKd: below the threshold
NOS1, P29475; [1]
  pKd: below the threshold
APBA2_2, Q99767; [1]
  pKd: below the threshold
FRMPD4, Q14CM0; [1]
  pKd: 3.79
ARHGAP21, Q5T5U3; [1]
  pKd: 3.82
Inadl_4, Q8NI35; [1]
  pKd: below the threshold
HTRA3, P83110; [1]
  pKd: 3.66
RAPGEF6, Q8TEU7; [1]
  pKd: below the threshold
MPDZ_12, O75970; [1]
  pKd: below the threshold
DFNB31_2, Q9P202; [1]
  pKd: below the threshold
DFNB31_1, Q9P202; [1]
  pKd: 3.52
PICK1, Q9NRD5; [1]
  pKd: 4.05
GIPC2, Q8TF65; [1]
  pKd: below the threshold
SCRIB_1, Q14160; [1]
  pKd: 4.57

## LRSPRTPSEV [OR10G3, Q8NGC4]
DFNB31_3, Q9P202; [1]
  pKd: 3.79
SNX27, Q96L92; [1]
  pKd: below the threshold
SNTG1, Q9NSN8; [1]
  pKd: below the threshold
TJP3_3, O95049; [1]
  pKd: below the threshold
MAGI2_6, Q86UL8; [1]
  pKd: below the threshold
Inadl_10, Q8NI35; [1]
  pKd: below the threshold
NHERF4_2, Q86UT5; [1]
  pKd: below the threshold
PTPN3, P26045; [1]
  pKd: 4.26
CARD11, Q9BXL7; [1]
  pKd: below the threshold
LNX2_2, Q8N448; [1]
  pKd: below the threshold
SNTB1, Q13884; [1]
  pKd: below the threshold
IL16_3, Q14005; [1]
  pKd: below the threshold
NOS1, P29475; [1]
  pKd: 3.76
APBA2_2, Q99767; [1]
  pKd: below the threshold
FRMPD4, Q14CM0; [1]
  pKd: below the threshold
ARHGAP21, Q5T5U3; [1]
  pKd: 3.97
Inadl_4, Q8NI35; [1]
  pKd: below the threshold
HTRA3, P83110; [1]
  pKd: below the threshold
RAPGEF6, Q8TEU7; [1]
  pKd: below the threshold
MPDZ_12, O75970; [1]
  pKd: 3.5
DFNB31_2, Q9P202; [1]
  pKd: below the threshold
DFNB31_1, Q9P202; [1]
  pKd: below the threshold
PICK1, Q9NRD5; [1]
  pKd: below the threshold
GIPC2, Q8TF65; [1]
  pKd: below the threshold
SCRIB_1, Q14160; [1]
  pKd: below the threshold
